This data set has as its target Oct-2 Q221A (UniProt P09086 1-479, Q221A). As to the kind of experiment: EMSA; EMSA with in vitro-translated protein and 32P-labelled annealed ds oligonucleotide; buffer, salt, pH and temperature not given in the material. The conditions noted are these: protein: ivt; label: 32P (T4 PNK, 5' end); blunt. On the technique in general: A gel shift assay detects complexes by their altered migration in electrophoresis.

Oct-2 Q221A, sequence (P09086 whole entry Q221A): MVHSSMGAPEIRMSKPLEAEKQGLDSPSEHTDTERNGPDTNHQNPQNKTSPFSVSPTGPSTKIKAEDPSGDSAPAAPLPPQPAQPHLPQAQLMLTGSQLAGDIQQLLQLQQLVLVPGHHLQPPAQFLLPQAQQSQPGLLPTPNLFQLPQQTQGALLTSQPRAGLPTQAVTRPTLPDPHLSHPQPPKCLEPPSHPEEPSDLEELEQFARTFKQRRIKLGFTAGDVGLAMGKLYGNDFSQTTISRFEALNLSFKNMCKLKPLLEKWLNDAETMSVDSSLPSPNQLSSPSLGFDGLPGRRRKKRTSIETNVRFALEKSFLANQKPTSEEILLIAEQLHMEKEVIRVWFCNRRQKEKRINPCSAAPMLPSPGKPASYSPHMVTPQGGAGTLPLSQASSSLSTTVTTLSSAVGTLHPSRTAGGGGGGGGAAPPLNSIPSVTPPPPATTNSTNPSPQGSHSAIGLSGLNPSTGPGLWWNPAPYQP

B1: Oct probe (dsDNA)
DNA 1: CAGTGATGCAAATCTTGT
DNA 2: ACAAGATTTGCATCACTG
As to B1, the binding result is on record as “no binding”.

For the origin of these results see PMC3276558, “The B-Cell Specific Transcription Factor, Oct-2, Promotes Epstein-Barr Virus Latency by Inhibiting the Viral Immediate-Early Protein, BZLF1”.
